In publication PMC12340436:
pKd: −log10 of the molar value.

Legend:
Assay in all cases: EMSA
[1] = test system: RhsP2tox WT (Pseudomonas aeruginosa PA14)
[2] = target: RhsP2tox K1564E K1564E (Pseudomonas aeruginosa PA14) (UniProt A0A0H2Z8A2)
[3] = target: RhsP2tox K1567E K1567E (Pseudomonas aeruginosa PA14) (UniProt A0A0H2Z8A2)
[4] = target: RhsP2tox K1574E K1574E (Pseudomonas aeruginosa PA14) (UniProt A0A0H2Z8A2)
[5] = target: RhsP2tox K1579E K1579E (Pseudomonas aeruginosa PA14) (UniProt A0A0H2Z8A2)
[6] = target: RhsP2tox K1580E K1580E (Pseudomonas aeruginosa PA14) (UniProt A0A0H2Z8A2)
[7] = target: RhsP2tox R1563E R1563E (Pseudomonas aeruginosa PA14) (UniProt A0A0H2Z8A2)
[8] = target: RhsP2tox WT (Pseudomonas aeruginosa PA14) (UniProt A0A0H2Z8A2)

How did the pKd [1] turn out when CsrB sRNA was run?
The pKd was 6.17.

For “GGGACCGGCGCAGAGGAGACAAUGCCGGAUUUAAGACGCGGAUGCACUGCUGUGUGUACUGUAGAGUCUGGCGGAUGUCGACAGACUCUAUUUUUUU [McaS sRNA]”, which binding [2] is on record?
The binding was “binds more weakly”.

What about the binding [3] of the same substance?
The binding was “binds more weakly”.

And the binding [4]?
The binding was “no binding”.

What about the binding [5] of the same substance?
The binding was “binds more weakly”.

What about the binding [6] of the same substance?
The binding was “binds more weakly”.

And the binding [7]?
The binding was “binds more weakly”.

What about the pKd [8] of the same substance?
The pKd was 5.16.

How did the pKd [1] turn out when McaS sRNA was run?
The pKd was 5.16.

With synthetic 50-nt RNA as the substance, how does the pKd [1] read?
The pKd was 5.66.
